Laboratory results from article PMC9714796.

Target: T1, Transforming growth factor-β2 (TGF-β2)
T1 sequence (P61812 303-414, species assumed, looked up): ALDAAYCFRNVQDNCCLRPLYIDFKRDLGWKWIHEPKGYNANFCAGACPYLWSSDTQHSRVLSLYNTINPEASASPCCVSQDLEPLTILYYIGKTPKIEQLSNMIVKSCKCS

B1: TGF-βRII-Fc (muTGFbRII-mFc) (Fc fusion)
chain: IPPHVPKSVNSDVMASDNGGAVKLPQLCKFCDVRLSTCDNQKSCMSNCSITAICEKPHEVCVAVWRKNDKNITLETVCHDPKLTYHGFTLEDAASPKCVMKEKKRAGETFFMCACNMEECNDYIIFSEEYTTSSPDLLLVIIQ
B1 was tested, and the IC50 of TGF-βRII-Fc against TGF-β2 (480 pg/mL) signalling in A549 cells with the (CAGA)12 luciferase reporter was greater than 88000.
